We go through one molecule from patent US20230105415A1 (ARIZONA BOARD OF REGENTSON BEHALF OF ARIZONA STATE …, published 2023).

In this assay the target is T1, human complement C1q (human, UniProt P02745 23-245; P02746 28-253; P02747 29-245).
T1 construct: also called human C1q
The experiment in a line: C1q binding ELISA, GnGn against wt plants (FIG. 9). (In an ELISA, binding on a coated surface is turned into a signal by an enzyme label.)

T1 sequence (P02745 23-245 limits assumed, chain 1 of 3): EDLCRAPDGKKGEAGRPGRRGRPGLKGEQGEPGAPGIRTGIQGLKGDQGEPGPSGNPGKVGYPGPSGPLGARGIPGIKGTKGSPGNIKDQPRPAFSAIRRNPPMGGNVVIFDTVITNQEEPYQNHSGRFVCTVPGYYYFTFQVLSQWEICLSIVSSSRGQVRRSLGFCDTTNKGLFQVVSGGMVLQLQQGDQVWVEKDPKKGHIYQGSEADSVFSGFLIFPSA
T1 sequence (P02746 28-253 limits assumed, chain 2 of 3): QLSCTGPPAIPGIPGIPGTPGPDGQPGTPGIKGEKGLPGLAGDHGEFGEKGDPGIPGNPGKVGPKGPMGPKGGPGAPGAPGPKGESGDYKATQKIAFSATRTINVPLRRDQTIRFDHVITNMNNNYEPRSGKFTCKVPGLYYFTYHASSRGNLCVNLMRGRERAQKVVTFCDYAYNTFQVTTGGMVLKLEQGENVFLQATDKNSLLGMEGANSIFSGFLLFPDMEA
T1 sequence (P02747 29-245 limits assumed, chain 3 of 3): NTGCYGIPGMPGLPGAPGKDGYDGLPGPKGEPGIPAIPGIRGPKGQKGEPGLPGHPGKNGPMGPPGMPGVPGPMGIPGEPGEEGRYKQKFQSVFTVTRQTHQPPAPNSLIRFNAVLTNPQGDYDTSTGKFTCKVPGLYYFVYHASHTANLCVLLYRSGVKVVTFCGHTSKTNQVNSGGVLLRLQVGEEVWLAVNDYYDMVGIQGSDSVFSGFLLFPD

B1: 6D8 antibody (full 6D8 mAb without ZE3 fusion, construct HL) (antibody)
heavy: not shown
light: DVLMTQSPLSLPVTLGQPASISCRSSQSIVHSNGNTYLEWYLQKPGQSPKLLIYKASNRFSGVPDRFSGSGSGTDFTLKISRVEAEDAGVYYCLQGSHVPSTFGGGTKVEIKTVAAPSVFIFPPSDEQLKSGTASVVCLLNNFYPREAKVQWKVDNALQSGNSQESVTEQDSKDSTYSLSSTLTLSKADYEKHKVYACEVTHQGLSSPVTKSFNRGEC
On to B1, for which the binding result is recorded as “binds”.
